Source: paper PMC10995623, “Apple E3 ligase MdPUB23 mediates ubiquitin-dependent degradation of MdABI5 to delay ABA-triggered leaf senescence”

Biological target: T1, MdABI5 (Malus domestica? (apple), UniProt A0A498IDK6 1-461)
T1 sequence: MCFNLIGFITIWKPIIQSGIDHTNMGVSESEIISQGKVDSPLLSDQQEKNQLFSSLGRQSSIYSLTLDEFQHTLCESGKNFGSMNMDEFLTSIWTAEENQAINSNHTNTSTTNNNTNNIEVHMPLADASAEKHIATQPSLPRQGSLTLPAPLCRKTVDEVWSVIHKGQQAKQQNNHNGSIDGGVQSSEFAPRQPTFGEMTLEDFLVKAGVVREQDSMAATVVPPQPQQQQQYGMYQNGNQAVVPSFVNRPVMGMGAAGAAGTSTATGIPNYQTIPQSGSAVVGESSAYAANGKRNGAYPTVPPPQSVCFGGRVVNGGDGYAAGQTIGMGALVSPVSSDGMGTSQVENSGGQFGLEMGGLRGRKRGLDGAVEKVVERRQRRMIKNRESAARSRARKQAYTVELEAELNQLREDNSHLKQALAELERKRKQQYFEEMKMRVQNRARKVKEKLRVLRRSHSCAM
Experiment: EMSA; MdABI5 alone; Beyotime EMSA/Gel-Shift Kit binding buffer (composition, salt and pH not given), 24 C, 30 min, biotin-labelled probe
Details: protein: recombinant; chain copies: 2; label: biotin; blunt

B1: MdSAG18 promoter probe (dsDNA)
DNA 1: GGGGGGGGTCCACGTGGGTCACCAAC
DNA 2: GTTGGTGACCCACGTGGACCCCCCCC
binding result: no binding
